Earlier results on 2 substances are cited in publication PMC10474648, “Design of chimeric GLP-1A using oligomeric bile acids to utilize transporter-mediated endocytosis for oral delivery” (Biomaterials Research, 2023).

One data set addresses GLP-1R. To be noted: read-out: Kd, GLP-1R binding; cited from earlier work. An excerpt:
Cellular penetration may occur by two pathways: the paracellular and transcellular pathways. […] Additionally, ...

For data set [1] the following is noted: cited from earlier work. An excerpt:
Diabetes is a representative chronic disease that requires lifetime management. Because of the need for frequent and combination dosing, most hypoglycemic therapeutics are small molecule-based oral drugs.

Take semaglutide: the Kd on GLP-1R was 0.38 nM. The Half-life in data set [1] was 170 h.
As to dulaglutide, in data set [1], the Half-life is 120 h.
